In data set [1] the target is biotinylated NmeHNH (Neisseria meningitidis) (UniProt C9X1G5). The data set can be described thus: BLI; biotinylated NmeHNH on streptavidin biosensors, Acr as analyte, 37 °C, 20 mM Tris, 100 mM NaCl, pH 7.4 without DTT; global 1:1 fit. For orientation: Biolayer interferometry detects binding as a change in optical thickness at a sensor tip.
For data set [2] the target is unchanged. The data set can be described thus: BLI; biotinylated NmeHNH on streptavidin biosensors, Acr as analyte, 37 °C, 20 mM Tris, 100 mM NaCl, pH 7.4 with 1 mM DTT; global 1:1 fit.
In a further data set the target is Cys80 (UniProt position 80, VGMASCWEFVE). The data set can be described thus: NMR. The note with it: 25 °C (general statement in the NMR methods), 100 mM NaCl, 50 mM Tris, buffer-exchanged at each pH, Free protein. Reduced monomer is inferred from Cbeta shifts of about 25.5-29.5 ppm, typical of free thiol. The presence of a reductant in the titration buffer is not stated.

Another data set has as its target Cys17 (UniProt position 17, AGYDGCGLCLA). Briefly: NMR. As to conditions: 25 °C (general statement in the NMR methods), 100 mM NaCl, 50 mM Tris, buffer-exchanged at each pH, Free protein. Reduced monomer is inferred from Cbeta shifts of about 25.5-29.5 ppm, typical of free thiol. The presence of a reductant in the titration buffer is not stated.
In data set [3] the target is BoeAcrIIC1 (AcrIIC1 ortholog from Brackiella oedipodis) (Brackiella oedipodis). The data set can be described thus: SEC + other: 1H NMR spectra; AcrIIC1 ortholog alone, oxidizing condition.
Data set [4] deals with NmeAcrIIC1 (AcrIIC1 from Neisseria meningitidis), reduced form (Neisseria meningitidis). The data set can be described thus: SEC; NmeAcrIIC1 alone, no reductant in the buffer or excess H2O2 added to the monomer eluent. (SEC sorts molecules by how far they enter the pores of the column.)

This is an account of results in publication PMC9674691.

By Kd is commonly meant the free concentration of one partner at which half of the binding sites on the other are occupied at equilibrium, for simple one-to-one binding. For “AcrIIC1-SS (NmeAcrIIC1 with Cys17 and Cys80 substituted with serine) (natural protein)”, the Kd in data set [1] came to 10.8 nM; in data set [2], 12.7 nM. For orientation: pKa means the pH at which an ionisable group is half protonated. As for “Anti-CRISPR protein AcrIIC1 (NmeAcrIIC1) (Neisseria meningitidis)”, the pKa with Cys80 was found to be 8.258 ± 0.218; with Cys17 it was 8.920 ± 0.158.

A word on the stoichiometry N: it is the number of molecules, sites or subunits per partner or assembly. On to “BoeAcrIIC1 (AcrIIC1 ortholog from Brackiella oedipodis) (natural protein)”, for which the stoichiometry N in data set [3] is 2. In turn, “NmeAcrIIC1 (AcrIIC1 from Neisseria meningitidis), reduced form (natural protein)” showed a Kd in data set [2] of 1.78 nM. This substance came in with a stoichiometry N in data set [4] of 2. In data set [1], “oxidized NmeAcrIIC1 dimer (natural protein)” registered a BLI response of less than 0.05.
